Non-standard residues stand in square brackets, D forms with d. No end group written: not given here. Aib = CC(C)(N)C(=O)O
Key:
Assay in all cases: cell-based or functional assay
human glucagon receptor = human glucagon receptor (human, UniProt P47871 26-477)
human GLP-1 receptor = human GLP-1 receptor (human, UniProt P43220 24-463)
human GIP receptor = target: T1, human GIP receptor (human, UniProt P48546 22-466)
T1 sequence (looked up): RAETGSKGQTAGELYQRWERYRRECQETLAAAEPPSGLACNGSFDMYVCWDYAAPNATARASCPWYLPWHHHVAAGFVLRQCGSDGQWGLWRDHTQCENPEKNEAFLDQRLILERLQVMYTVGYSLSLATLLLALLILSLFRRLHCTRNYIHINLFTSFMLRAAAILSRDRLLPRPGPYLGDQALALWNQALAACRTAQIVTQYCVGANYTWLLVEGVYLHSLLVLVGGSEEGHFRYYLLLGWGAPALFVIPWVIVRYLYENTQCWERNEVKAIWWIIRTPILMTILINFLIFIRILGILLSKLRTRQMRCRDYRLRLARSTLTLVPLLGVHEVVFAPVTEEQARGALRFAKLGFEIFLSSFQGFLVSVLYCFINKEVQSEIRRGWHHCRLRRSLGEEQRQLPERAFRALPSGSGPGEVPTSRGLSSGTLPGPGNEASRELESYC

Sequence of human glucagon receptor (P47871 26-477): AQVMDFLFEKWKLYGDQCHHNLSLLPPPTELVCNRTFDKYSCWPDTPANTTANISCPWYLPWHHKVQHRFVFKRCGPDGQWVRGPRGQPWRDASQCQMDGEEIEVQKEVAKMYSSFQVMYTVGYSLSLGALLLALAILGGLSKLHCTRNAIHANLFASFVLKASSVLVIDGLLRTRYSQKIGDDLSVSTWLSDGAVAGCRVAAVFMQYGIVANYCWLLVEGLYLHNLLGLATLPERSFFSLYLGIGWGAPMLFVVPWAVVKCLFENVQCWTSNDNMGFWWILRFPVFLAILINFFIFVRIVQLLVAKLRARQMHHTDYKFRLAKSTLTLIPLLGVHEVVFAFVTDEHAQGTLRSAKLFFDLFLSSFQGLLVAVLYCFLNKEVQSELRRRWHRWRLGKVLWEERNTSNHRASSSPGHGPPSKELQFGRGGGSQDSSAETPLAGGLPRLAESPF

B1: exendin-4 derivative SEQ ID NO: 23 (comparison compound, non-functionalized Lys in position 14) (peptide)
peptide: H[Aib]QGTFTSDLSKQKDEQRAKLFIEWL[Aib]AGGPSSGAPPPS-NH2
modifications: N-terminus assumed
SMILES: CC[C@H](C)[C@H](NC(=O)[C@H](Cc1ccccc1)NC(=O)[C@H](CC(C)C)NC(=O)[C@H](CCCCN)NC(=O)[C@H](C)NC(=O)[C@H](CCCNC(=N)N)NC(=O)[C@H](CCC(N)=O)NC(=O)[C@H](CCC(=O)O)NC(=O)[C@H](CC(=O)O)NC(=O)[C@H](CCCCN)NC(=O)[C@H](CCC(N)=O)NC(=O)[C@H](CCCCN)NC(=O)[C@H](CO)NC(=O)[C@H](CC(C)C)NC(=O)[C@H](CC(=O)O)NC(=O)[C@H](CO)NC(=O)[C@@H](NC(=O)[C@H](Cc1ccccc1)NC(=O)[C@@H](NC(=O)CNC(=O)[C@H](CCC(N)=O)NC(=O)C(C)(C)NC(=O)[C@@H](N)Cc1c[nH]cn1)[C@@H](C)O)[C@@H](C)O)C(=O)N[C@@H](CCC(=O)O)C(=O)N[C@@H](Cc1c[nH]c2ccccc12)C(=O)N[C@@H](CC(C)C)C(=O)NC(C)(C)C(=O)N[C@@H](C)C(=O)NCC(=O)NCC(=O)N1CCC[C@H]1C(=O)N[C@@H](CO)C(=O)N[C@@H](CO)C(=O)NCC(=O)N[C@@H](C)C(=O)N1CCC[C@H]1C(=O)N1CCC[C@H]1C(=O)N1CCC[C@H]1C(=O)N[C@@H](CO)C(N)=O
B1 was tested, and the “EC50 hGlucagon-R (cAMP formation)” value (human glucagon receptor) was 42.9 nM, the “EC50 hGLP-1R (cAMP formation)” value (human GLP-1 receptor) was 0.0525 nM and the “EC50 hGIP-1 (cAMP formation, GIP receptor)” value (human GIP receptor) was 177 nM.
